Source: US20220298237A1 (KEIO UNIVERSITY, published 2022)
Several values for one entry are separate records, joined by “and”; a condition that tells them apart may be missing. Equal values may be shown once.

Key:
[1] = target: T1, oligopeptide ATYPSGHLDM (SEQ ID NO: 1) (human and mouse); assay: ELISA on peptide SEQ ID NO:1, IgG, 50% binding response (FIG. 16A)
T1 construct: Synthetic peptide; positions 148 to 157 of the human AQP3 polypeptide, identical in mouse; also called peptide used for immunization; oligopeptide 5
T1 peptide: ATYPSGHLDM

[2] = target: T2, oligopeptide SGPNGTAGIFATYPS (SEQ ID NO: 94); assay: ELISA on coated peptide
T2 construct: Synthetic peptide, part of Loop C of AQP3
T2 peptide: SGPNGTAGIFATYPS
Procedure: (§1) To determine the important amino acid residues of an epitope in Loop C involved in binding to specific AQP3 antibody clones, peptides of varying lengths were produced. The sequences of these peptides are shown in column 2 of Table 4.
(§2) The various peptides and AQP3 antibody clones were subjected to ELISA binding analyses. […] The microtiter wells (Costar 2690) were coated with 50 μL of each peptide at 4° C. overnight. The wells were washed 3 times with PBS and blocked with 100 μL of 1% BSA/PBS at 37° C. for 1 hour. Each antibody was adjusted to 1 μg/mL in 1% SBA/PBS as above then serially diluted 1:5 in 1% BSA/PBS. The blocker was discarded and the wells were incubated with 50 μL of antibodies at 37° C. for 1.5 hours. The wells were washed 3 times with PBS and mouse antibodies were detected with 50 μL of goat anti-mouse IgG (H+L) HRP conjugate (ThermoFisher 31438) (1:5,000 in 1% BSA/PBS) and rabbit antibodies were detected with 50 μL of goat anti-rabbit IgG (H+L) HRP conjugate (ThermoFisher 31462) (1:5,000 in 1% BSA/PBS) at 37° C. for 1 hour. The wells were washed 3 times with PBS and developed with 50 μL of HRP substrate at RT for 5 min then stopped with 50 μL of 2N sulfuric acid and binding was measured with a plate reader.

[3] = target: T3, oligopeptide FATYPSGHLDM (SEQ ID NO: 109); assay: ELISA on coated peptide
T3 construct: Synthetic peptide, part of Loop C of AQP3
T3 peptide: FATYPSGHLDM
Procedure: as §1, §2

[4] = target: T4, oligopeptide YPSGHLDM (SEQ ID NO: 97); assay: ELISA on coated peptide
T4 construct: Synthetic peptide, part of Loop C of AQP3; first diluted in DMSO
T4 peptide: YPSGHLDM
Procedure: as §1, §2

[5] = target: T5, oligopeptide ATYPSGH (SEQ ID NO: 103); assay: ELISA on coated peptide
T5 construct: Synthetic peptide, part of Loop C of AQP3
T5 peptide: ATYPSGH
Procedure: as §1, §2

[6] = target: T6, oligopeptide GHLDM (SEQ ID NO: 100); assay: ELISA on coated peptide
T6 construct: Synthetic peptide, part of Loop C of AQP3
T6 peptide: GHLDM
Procedure: as §1, §2

[7] = target: T7, oligopeptide GIFATYPSGHLDM (SEQ ID NO: 107); assay: ELISA on coated peptide
T7 construct: Synthetic peptide, part of Loop C of AQP3
T7 peptide: GIFATYPSGHLDM
Procedure: as §1, §2

[8] = target: T8, oligopeptide TYPSGHLDM (SEQ ID NO: 96); assay: ELISA on coated peptide
T8 construct: Synthetic peptide, part of Loop C of AQP3
T8 peptide: TYPSGHLDM
Procedure: as §1, §2

[9] = target: T9, oligopeptide ATYPSGHL (SEQ ID NO: 102); assay: ELISA on coated peptide
T9 construct: Synthetic peptide, part of Loop C of AQP3
T9 peptide: ATYPSGHL
Procedure: as §1, §2

[10] = target: T10, oligopeptide TAGIFATYPSGHLDM (SEQ ID NO: 105); assay: ELISA on coated peptide
T10 construct: Synthetic peptide, part of Loop C of AQP3
T10 peptide: TAGIFATYPSGHLDM
Procedure: as §1, §2

[11] = target: T1, oligopeptide ATYPSGHLDM (SEQ ID NO: 1); assay: ELISA on coated peptide
Procedure: as §1, §2

[12] = target: T11, oligopeptide IFATYPSGHLDM (SEQ ID NO: 108); assay: ELISA on coated peptide
T11 construct: Synthetic peptide, part of Loop C of AQP3
T11 peptide: IFATYPSGHLDM
Procedure: as §1, §2

[13] = target: T12, oligopeptide ATYPSG (SEQ ID NO: 104); assay: ELISA on coated peptide
T12 construct: Synthetic peptide, part of Loop C of AQP3
T12 peptide: ATYPSG
Procedure: as §1, §2

[14] = target: T13, oligopeptide ATYPSGHLD (SEQ ID NO: 101); assay: ELISA on coated peptide
T13 construct: Synthetic peptide, part of Loop C of AQP3
T13 peptide: ATYPSGHLD
Procedure: as §1, §2

[15] = target: T14, oligopeptide PSGHLDM (SEQ ID NO: 98); assay: ELISA on coated peptide
T14 construct: Synthetic peptide, part of Loop C of AQP3
T14 peptide: PSGHLDM
Procedure: as §1, §2

[16] = target: T15, oligopeptide AGIFATYPSGHLDM (SEQ ID NO: 106); assay: ELISA on coated peptide
T15 construct: Synthetic peptide, part of Loop C of AQP3
T15 peptide: AGIFATYPSGHLDM
Procedure: as §1, §2

[17] = target: T16, oligopeptide SGHLDM (SEQ ID NO: 99); assay: ELISA on coated peptide
T16 construct: Synthetic peptide, part of Loop C of AQP3
T16 peptide: SGHLDM
Procedure: as §1, §2

[18] = target: T17, mouse aquaporin 3 (AQP3) on cells (mouse, UniProt Q8R2N1 1-292); assay: fluorescence binding assay on PAM212 cells with AQP3 siRNA (10% of AQP3 expression) against control siRNA, 1 µg/mL (FIG. 19)
T17 construct: whole, on cells; Water channel membrane protein; also called mouse AQP3; AQP3 on PAM212 cells
T17 sequence (looked up): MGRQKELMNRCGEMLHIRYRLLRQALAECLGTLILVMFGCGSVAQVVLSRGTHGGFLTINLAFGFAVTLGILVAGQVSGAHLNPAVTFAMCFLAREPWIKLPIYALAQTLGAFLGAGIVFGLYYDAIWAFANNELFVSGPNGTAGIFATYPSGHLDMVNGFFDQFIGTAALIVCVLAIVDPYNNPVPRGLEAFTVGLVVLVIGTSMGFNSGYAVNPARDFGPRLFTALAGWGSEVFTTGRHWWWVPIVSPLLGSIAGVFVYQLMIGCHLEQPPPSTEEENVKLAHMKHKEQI
Procedure: The resulting siRNA AQP3 cell line had 10% of the AQP3 expression compared to the control siRNA cell line. The siRNA AQP3 and control siRNA PAM212 cells were reacted with SC—F8, BC—H9, BC—B10, and SC—B6 at the chosen concentration 1 μg/mL at 4° C. for 1 hour. After washing the cells, a fluorescent-labeled secondary antibody was added and the reaction was allowed to occur additionally for 1 hour (at 4° C.). By measuring the fluorescence intensity, the binding property of each anti AQP3 antibody to the two cell lines was obtained.
The result of the above experiment is shown in FIG. 19, wherein the vertical axis represents fluorescence intensity, and the mean fluorescence intensity of each sample is represented by bar height together with standard error.

[19] = target: T18, human aquaporin 3 (AQP3) on cells (human, UniProt Q92482 1-292); assay: fluorescence binding assay on HaCaT cells, 10 µg/mL
T18 construct: whole, on cells; Water channel membrane protein; also called human AQP3; AQP3 on HaCaT cells
T18 sequence (looked up): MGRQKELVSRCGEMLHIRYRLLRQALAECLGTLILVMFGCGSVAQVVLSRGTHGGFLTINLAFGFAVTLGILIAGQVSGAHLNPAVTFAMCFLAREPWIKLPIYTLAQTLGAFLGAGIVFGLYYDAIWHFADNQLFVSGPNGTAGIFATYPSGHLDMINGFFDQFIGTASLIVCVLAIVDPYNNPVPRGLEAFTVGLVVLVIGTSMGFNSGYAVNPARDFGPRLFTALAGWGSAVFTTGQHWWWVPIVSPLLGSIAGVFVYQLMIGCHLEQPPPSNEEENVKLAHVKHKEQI
Procedure: HaCaT cells were reacted with each anti AQP3 antibody at concentrations of none, 1 ng/mL, 10 ng/mL, 100 ng/mL, 1 μg/mL, or 10 μg/mL at 4° C. for 1 hour. After washing the cells, a fluorescent-labeled secondary antibody was added and the reaction was allowed to occur additionally for 1 hour (at 4° C.). By measuring the fluorescence intensity, the binding property of each anti AQP3 antibody to cells was obtained.

[20] = target: T19, oligopeptide SRGTHGGFL (SEQ ID NO: 2); assay: ELISA on peptide SEQ ID NO:2 (FIG. 16B)
T19 construct: Synthetic peptide of AQP3 Loop A; also called Loop A peptide; control peptide
T19 peptide: SRGTHGGFL

[21] = target: T17, mouse aquaporin 3 (AQP3) on cells; assay: fluorescence binding assay on PAM212 cells, 10 µg/mL
Procedure: PAM212 cells were reacted with each anti AQP3 antibody at concentrations of none, 1 ng/mL, 10 ng/mL, 100 ng/mL, 1 μg/mL, or 10 μg/mL at 4° C. for 1 hour. After washing the cells, a fluorescent-labeled secondary antibody was added and the reaction was allowed to occur additionally for 1 hour (at 4° C.). By measuring the fluorescence intensity, the binding property of each anti AQP3 antibody to cells was obtained.

[22] = target: T20, mouse AQP3 in lysate of HEK293T cells overexpressing mouse AQP3 and a myc-biotinylated tag (mouse, UniProt Q8R2N1 1-292); assay: ELISA on lysate of HEK293T cells overexpressing mouse AQP3 (FIG. 3)
T20 construct: Cell lysate used in ELISA; also called AQP3 containing cell lysate; not shown: myc-biotinylated tag
T20 sequence (looked up): T17 sequence (looked up)
From the text: Cell lysate from HEK293T cells overexpressing mouse AQP3 and a myc-biotinylated tag was used in an ELISA assay to measure the binding of antibodies A, B, C, D, E, F, G, H, J, and K to AQP3. Cell lysate from HEK293T cells overexpressing the myc-biotinylated tag but not AQP3 was used as control. […] C. Antibody binding to AQP3 expressing cells

[23] = target: T18, human aquaporin 3 (AQP3) on cells; assay: fluorescence binding assay on HaCaT cells, 10 µg/mL (FIG. 5C)
[24] = target: T17, mouse aquaporin 3 (AQP3) on cells; assay: fluorescence binding assay on mouse macrophage cells, 0.1, 1 and 10 µg/mL (FIG. 4)
Procedure: PAM212 and macrophage cells were reacted with each anti AQP3 antibody (0.1, 1, or 10 μg/mL) at 4° C. for 1 hour. After washing the cells, a fluorescent-labeled secondary antibody was added and the reaction was allowed to occur additionally for 1 hour (4° C.). By measuring the fluorescence intensity, the binding property of each anti AQP3 antibody to cells was obtained.
The testing was also carried out using solvent (Veh) or a non-specific IgG (IgG) controls. In FIG. 4, the vertical axis represents fluorescence intensity, and the mean fluorescence intensity of each sample is represented by bar height together with standard error.

B1: BC-B10 (IgG) (antibody, V domains shown)
VH: QSVEESGGRLVTPGAPLTLTCTVSRFSLSSYAMTWVRQAPGKGLEWIGIINNDVISSTWYASWVKGRFTISKTSTTMELKMTSLTTEDTATYFCARGGTSGYDIWGPGTLVTVSS
VL: AIKMTQTPSPVSAAVGGTVTINCQSSPSVYKNYLSWYQQKPGQPPKLLIYGASTLASGVPSRFKGSGSGTQFTLTISDVQCDDAATYYCAGGYIGSRDIFSFGGGTEVVVK
notes: also called anti AQP3 antibody BC-B10
EC50 [1]: 0.01 µg/mL and ~0.06 nM | binding signal (plate reader) [2]: 3.76 | binding signal (plate reader) [3]: 3.92 | binding signal (plate reader) [4]: 3.96 | binding signal (plate reader) [5]: 3.91 | binding signal (plate reader) [6]: 0.123 | binding signal (plate reader) [7]: 3.88 | binding signal (plate reader) [8]: 3.96 | binding signal (plate reader) [9]: 4 | binding signal (plate reader) [10]: 3.99 | binding signal (plate reader) [11]: 3.98 | binding signal (plate reader) [12]: 3.88 | binding signal (plate reader) [13]: 3.54 | binding signal (plate reader) [14]: 3.96 | binding signal (plate reader) [15]: 3.72 | binding signal (plate reader) [16]: 3.9 | binding signal (plate reader) [17]: 0.405 | fold decrease in fluorescence intensity on AQP3 siRNA cells against control siRNA cells [18]: ~2 fold | fold fluorescence intensity over no antibody [19]: > 2 fold | binding result [20]: no binding | fold fluorescence intensity over no antibody [21]: ≥ 2 fold

B2: Antibody J (antibody, mouse IgG2a, kappa, V domains shown)
VH: QVHLQQSGTELVKPGASVKLSCEASGYTFTSYWMHWVKQRPGQGLEWIGNINPSNGGTNYNEKFKSKATLTVDKSSSTAYMQLSSLTSEDSAVYYCARGGIYYGNYDYYAMDYWGQGTSVTVSS
VL: DIVMTQAAPSVPVTPGESVSISCRSSKSLLHSNGNTYLYWFLQRPGQSPQLLIYRVSNLASGVPDRFSGSGSGTAFTLRISRVEAEDVGVYYCMQHLEYPFTFGGGTKLEIKR
notes: also called anti AQP3 antibody J
binding result [22]: binds | EC50 [1]: > 1 µg/mL | binding signal (plate reader) [2]: 0.043 | binding signal (plate reader) [3]: 0.513 | binding signal (plate reader) [4]: 0.086 | binding signal (plate reader) [5]: 0.045 | binding signal (plate reader) [6]: 0.043 | binding signal (plate reader) [7]: 0.523 | binding signal (plate reader) [8]: 0.26 | binding signal (plate reader) [9]: 0.044 | binding signal (plate reader) [10]: 0.723 | binding signal (plate reader) [11]: 0.391 | binding signal (plate reader) [12]: 0.594 | binding signal (plate reader) [13]: 0.044 | binding signal (plate reader) [14]: 0.671 | binding signal (plate reader) [15]: 0.095 | binding signal (plate reader) [16]: 0.744 | binding signal (plate reader) [17]: 0.041 | binding result [23]: binds | binding result [24]: binds
